Results published in the RNAGym collection of RNA variant scans (doi:10.7554/elife.80360).

B1: Twister Ribozyme (parent)
chain: AACACUGCCAAUGCCGGUCCCAAGCCCGGAUAAAAGUGGAGGGGGCGG

Variants of: B1
Experiment: self-cleavage, relative activity (ratio to wild type); higher = more cleavage; co-transcriptional

| Variant | self-cleavage |
| --- | --- |
| AACACUGCCAAUGCCGUUCCGAAGCCCGGAUAAAAGUGGAGGGGGCGG [G17U C21G] | 0.064 |
| AACACUGCCAAUGCCGUUCCCAAGCCCGGAUAAAAGUGGAAGGGGCGG [G17U G41A] | 0.103 |
| AACACUGCCAAUGCCGUUCCCAAGCCCGGAUAAAAGUGGAUGGGGCGG [G17U G41U] | 0.101 |
| AACACUGCCAAUGCCGUUCCCAAGCCCGGAUAAAAGUGGACGGGGCGG [G17U G41C] | 0.0885 |
| AACACUGCCAAUGCCGGCACCAAGCCCGGAUAAAAGUGGAGGGGGCGG [U18C C19A] | 0.0644 |
| AACACUGCCAAUGCCGGACCCAAGCGCGGAUAAAAGUGGAGGGGGCGG [U18A C26G] | 0.124 |
| AACACUGCCAAUGCCGUUGCCAAGCCCGGAUAAAAGUGGAGGGGGCGG [G17U C19G] | 0.111 |
| AACACUGCCAAUGCCGUUUCCAAGCCCGGAUAAAAGUGGAGGGGGCGG [G17U C19U] | 0.143 |
| AACACUGCCAAUGCCGUUCCCAAGCACGGAUAAAAGUGGAGGGGGCGG [G17U C26A] | 0.719 |
| AACACUGCCAAUGCCGUUCCCAAGCCCGGAUAAAAGUGGAGGUGGCGG [G17U G43U] | 0.12 |
| AACACUGCCAAUGCCGGACCCAAGCCCGGAUAAAAGUGGAGUGGGCGG [U18A G42U] | 0.161 |
| AACACUGCCAAUGCCGGACCCAAGCCCGGAUAAAAGUGGGGGGGGCGG [U18A A40G] | 0.0784 |
| AACACUGCCAAUGCCGUUCCCAAACCCGGAUAAAAGUGGAGGGGGCGG [G17U G24A] | 0.101 |
| AACACUGCCAAUGCCGUUCCCAAGCCCCGAUAAAAGUGGAGGGGGCGG [G17U G28C] | 0.0949 |
| AACACUGCCAAUGCCGGACCCAAGUCCGGAUAAAAGUGGAGGGGGCGG [U18A C25U] | 0.0861 |
| AACACUGCCAAUGCCGUUCCCAAGCCCGGAUAAAAUUGGAGGGGGCGG [G17U G36U] | 0.0806 |
| AACACUGCCAAUGCCGUUCCCAAGCCCGGAUAAAACUGGAGGGGGCGG [G17U G36C] | 0.14 |
| AACACUGCCAAUGCCGGACCCAAGCCCGGAUAAAAGUGGAGGGGGAGG [U18A C46A] | 0.252 |
| AACACUGCCAAUGCCGGACCCAAGCCCGGAUAAAAGUGGAGGGGGUGG [U18A C46U] | 0.617 |
| AACACUGCCAAUGCCGGACCCAAGCCCGGAUAAAAGUGGAGGGGGGGG [U18A C46G] | 0.475 |
| AACACUGCCAAUGCCGGCCCCAUGCCCGGAUAAAAGUGGAGGGGGCGG [U18C A23U] | 0.242 |
| AACACUGCCAAUGCCGGCCCCAGGCCCGGAUAAAAGUGGAGGGGGCGG [U18C A23G] | 0.157 |
| AACACUGCCAAUGCCGGCCCCACGCCCGGAUAAAAGUGGAGGGGGCGG [U18C A23C] | 0.506 |
| AACACUGCCAAUGCCGGACCCAAGCCGGGAUAAAAGUGGAGGGGGCGG [U18A C27G] | 0.0805 |
| AACACUGCCAAUGCCGGACCCAAGCCAGGAUAAAAGUGGAGGGGGCGG [U18A C27A] | 0.114 |
| AACACUGCCAAUGCCGGACCCAAGCCCGGAUAAAAGUGGAGGGGUCGG [U18A G45U] | 0.272 |
| AACACUGCCAAUGCCGGCCCCAAGCCCGGAUAUAAGUGGAGGGGGCGG [U18C A33U] | 0.542 |

| Variant | self-cleavage |
| --- | --- |
| AACACUGCCAAUGCCGGCCCCAAGCCCGGAUAGAAGUGGAGGGGGCGG [U18C A33G] | 0.503 |
| AACACUGCCAAUGCCGUUCCCAAGCCCGGCUAAAAGUGGAGGGGGCGG [G17U A30C] | 0.147 |
| AACACUGCCAAUGCCGUUCCCAAGCCCGGUUAAAAGUGGAGGGGGCGG [G17U A30U] | 0.485 |
| AACACUGCCAAUGCCGUUCCCAAGCCCGGAUAAAAGUGGAGGGGGCAG [G17U G47A] | 0.237 |
| AACACUGCCAAUGCCGGACCCAAGCCCGGAUACAAGUGGAGGGGGCGG [U18A A33C] | 0.247 |
| AACACUGCCAAUGCCGUUCCCAAGCCCGGAUAAAAGUUGAGGGGGCGG [G17U G38U] | 0.158 |
| AACACUGCCAAUGCCGGCCCCAAGCCCGGCUAAAAGUGGAGGGGGCGG [U18C A30C] | 0.0938 |
| AACACUGCCAAUGCCGGCCCCAAGCCCGGGUAAAAGUGGAGGGGGCGG [U18C A30G] | 0.713 |
| AACACUGCCAAUGCCGUUCCCGAGCCCGGAUAAAAGUGGAGGGGGCGG [G17U A22G] | 0.103 |
| AACACUGCCAAUGCCGGACCCAAGCCCGGAGAAAAGUGGAGGGGGCGG [U18A U31G] | 0.644 |
| AACACUGCCAAUGCCGGACCCAAGCCCGGACAAAAGUGGAGGGGGCGG [U18A U31C] | 0.568 |
| AACACUGCCAAUGCCGUUCCCAAGCCCGGAUAAUAGUGGAGGGGGCGG [G17U A34U] | 0.159 |
| AACACUGCCAAUGCCGUUCCCAAGCCCGGAUAAAAGUGGAGGGGGCGG [G17U] | 0.497 |
| AACACUGCCAAUGCCGUUCUCAAGCCCGGAUAAAAGUGGAGGGGGCGG [G17U C20U] | 0.167 |
| AACACUGCCAAUGCCGUUCGCAAGCCCGGAUAAAAGUGGAGGGGGCGG [G17U C20G] | 0.105 |
| AACACUGCCAAUGCCGUUCCCAAGCCCGGAUAAAAGUGGAGGGGGUGG [G17U C46U] | 0.625 |
| AACACUGCCAAUGCCGUUCCCAAGCCCGGAUAAAAGUGGAGGGGGAGG [G17U C46A] | 0.274 |
| AACACUGCCAAUGCCGGACCCAAGCCCGGAUAAAAGUGGAGGGCGCGG [U18A G44C] | 0.448 |
| AACACUGCCAAUGCCGGACCCAAGCCCGGAUAAAAGUGGAGGGAGCGG [U18A G44A] | 0.631 |
| AACACUGCCAAUGCCGUUCCCAAGCCCGGAUAAAAGUGGUGGGGGCGG [G17U A40U] | 0.145 |
| AACACUGCCAAUGCCGUUCCCAAGCCCGGAUAAAAGCGGAGGGGGCGG [G17U U37C] | 0.085 |
| AACACUGCCAAUGCCGGACCCAAGCCCGGUUAAAAGUGGAGGGGGCGG [U18A A30U] | 0.586 |
| AACACUGCCAAUGCCGGACCCAAGCCCGGGUAAAAGUGGAGGGGGCGG [U18A A30G] | 0.606 |
| AACACUGCCAAUGCCGGACCCAAGCCCGGAUAAAAGUGGAGGGGGCGU [U18A G48U] | 0.419 |
| AACACUGCCAAUGCCGGACCCAAGCCCGGAUAAAAGUGGAGGGGGCGC [U18A G48C] | 0.395 |
| AACACUGCCAAUGCCGGACCCUAGCCCGGAUAAAAGUGGAGGGGGCGG [U18A A22U] | 0.17 |
| AACACUGCCAAUGCCGGACCCAGGCCCGGAUAAAAGUGGAGGGGGCGG [U18A A23G] | 0.0959 |
